Source: patent US6599706B1, “Recombinant PR-3 and assays employing the same” (Chiron Corporation, priority 1994, dated 2003)

How the values were obtained:
[1] = Enzymatic activity of purified recombinant PR-3 on Boc-Ala-ONP; type: biochemical, human
Protocol: In order to generate therapeutic-grade PR-3, the Mono-S purified recombinant PR-3 (obtained as described in Example 16) was subjected to size-exclusion chromatography. 0.8 mg of protein from the Mono-S pool was concentrated to 2 mg/ml by Amicon YM10 ultrafiltration and loaded onto a S-300 HR column (1.6×60 cm. Pharmacia Biotechnology, Inc., NJ) and chromatographed with a mobile phase of PBS containing 0.04% Triton X-100. Fractions enriched in PR-3 were detected by assaying for enzymatic activity (Boc-Ala-ONP assay) and analyzing on SDS-PAGE with Coomassie blue staining. A single band of 28 kD was observed. The PR-3 eluted with a retention time correlating to an apparent molecular mass of 35 kD as compared to BSA and chymotrypsinogen A chromatographed in the same buffer. This process produced PR-3 that was ≧95% pure with an overall recovery of about 25% and a lipopolysaccharide content of ≦about 10 ng per mg of protein as measured using an Limulus Amoebocyte Lysate Assay (Associates of Cape Cod, Inc., Woods Hole, Mass.). The purified enzyme has a specific activity of approximately 30 units per mg (where a unit is defined as 1 micromole of product produced from cleavage of Boc-Ala-ONP permin. at 25° C., pH 7.5) and a Kcat of approximately 12 per second.

[2] = Storage stability of active recombinant PR-3; type: physicochemical; settings: 4° C.; phosphate buffer pH 7.0 with 0.1% Triton X-100, NaCl eluate
Protocol: The proPR-3 was purified as described above through the Mono-S-Sepharose step and the DPPI activation. At the end of the activation reaction, the PR-3 was diluted 3-fold using deionized water and loaded onto a Pharmacia Mono-S column, previously equilibrated in loading buffer B (10 mM sodium phosphate buffer, pH 7.0, containing 0.1% (v/v) Triton X-100). After washing the column with three bed volumes of loading buffer B, the column was eluted with a 20-minute, 0-0.8 M sodium chloride gradient at 1 ml/min flow rate. PR-3 eluted as the only major peak of protein in the gradient. PR-3 activity was measured across the column by diluting 10 μl of each fraction into 100 mM sodium phosphate buffer containing 10% acetonitrile and 0.5 mM Boc-Ala-ONp. The absorbance at 402 nm of each assay sample was measured after approximately 10 min. Fractions containing activated PR-3 were pooled and stored at 4° C. […] The active PR-3 was stable over 1 month at 4° C. under these conditions

B1: PR-3: purified active recombinant human PR-3 serine protease produced from proPR-3 in Sf9 cells, activated with DPPI (protein)
chain: MAHRPPSPALASVLLALLLSGAARAAEIVGGHEAQPHSRPYMASLQMRGNPGSHFCGGTLIHPSFVLTAAHCLRDIPQRLVNVVLGAHNVRTQEPTQQHFSVAQVFLNNYDAENKLNDILLIQLSSPANLSASVATVQLPQQDQPVPHGTQCLAMGWGRVGAHDPPAQVLQELNVTVVTFFCRPHNICTFVPRRKAGICFGDSGGPLICDGIIQGIDSFVIWGCATRLFPDFFTRVALYVDWIRSTLRRVEAKGRP
Kcat ([1]; Boc-Ala-ONP): approximately 12 per second | specific activity ([1]; unit = 1 micromole product per min at 25° C., pH 7.5): approximately 30 units per mg | stability on storage [2]: over 1 month
